The values that follow come from patent publication US20090226946.

B1: GST-E6AP (protein)
chain: MEKLHQCYWKSGEPQSDDIEASRMKRAAAKHLIERYYHQLTEGCGNEACTNEFCASCPTFLRMDNNAAAIKALELYKINAKLCDPHPSKKGASSAYLENSKGAPNNSCSEIKMNKKGARIDFKDVTYLTEEKVYEILELCREREDYSPLIRVIGRVFSSAEALVQSFRKVKQHTKEELKSLQAKDEDKDEDEKEKAACSAAAMEEDSEASSSRIGDSSQGDNNLQKLGPDDVSVDIDAIRRVYTRLLSNEKIETAFLNALVYLSPNVECDLTYHNVYSRDPNYLNLFIIVMENRNLHSPEYLEMALPLFCKAMSKLPLAAQGKLIRLWSKYNADQIRRMMETFQQLITYKVISNEFNSRNLVNDDDAIVAASKCLKMVYYANVVGGEVDTNHNEEDDEEPIPESSELTLQELLGEERRNKKGPRVDPLETELGVKTLDCRKPLIPFEEFINEPLNEVLEMDKDYTFFKVETENKFSFMTCPFILNAVTKNLGLYYDNRIRMYSERRITVLYSLVQGQQLNPYLRLKVRRDHIIDDALVRLEMIAMENPADLKKQLYVEFEGEQGVDEGGVSKEFFQLVVEEIFNPDIGMFTYDESTKLFWFNPSSFETEGQFTLIGIVLGLAIYNNCILDVHFPMVVYRKLMGKKGTFRDLGDSHPVLYQSLKDLLEYEGNVEDDMMITFQISQTDLFGNPMMYDLKENGDKIPITNENRKEFVNLYSDYILNKSVEKQFKAFRRGFHMVTNESPLKYLFRPEEIELLICGSRNLDFQALEETTEYDGGYTRDSVLIREFWEIVHSFTDEQKRLFLQFTTGTDRAPVGGLGKLKMIIAKNGPDTERLPTSHTCFNVLLLPEYSSKEKLKERLLKAITYAKGFGML
B2: GST-Siah2 (protein)
chain: MSRPSSTGPSANKPCSKQPPPQPQHTPSPAAPPAAATISAAGPGSSAVPAAAAVISGPGGGGGAGPVSPQHHELTSLFECPVCFDYVLPPILQCQAGHLVCNQCRQKLSCCPTCRGALTPSIRNLAMEKVASAVLFPCKYATTGCSLTLHHTEKPEHEDICEYRPYSCPCPGASCKWQGSLEAVMSHLMHAHKSITTLQGEDIVFLATDINLPGAVDWVMMQSCFGHHFMLVLEKQEKYEGHQQFFAIVLLIGTRKQAENFAYRLELNGNRRRLTWEATPRSIHDGVAAAIMNSDCLVFDTAIAHLFADNGNLGINVTISTCCP
B3: His-CHIP (protein)
chain: MKGKEEKEGGARLGAGGGSPEKSPSAQELKEQGNRLFVGRKYPEAAACYGRAITRNPLVAVYYTNRALCYLKMQQHEQALADCRRALELDGQSVKAHFFLGQCQLEMESYDEAIANLQRAYSLAKEQRLNFGDDIPSALRIAKKKRWNSIEERRIHQESELHSYLSRLIAAERERELEECQRNHEGDEDDSHVRAQQACIEAKHDKYMADMDELFSQVDEKRKKRDIPDYLCGKISFELMREPCITPSGITYDRKDIEEHLQRVGHFDPVTRSPLTQEQLIPNLAMKEVIDAFISENGWVEDY
B4: GST-Murf1 (protein)
chain: MDYKSSLIQDGNPMENLEKQLICPICLEMFTKPVVILPCQHNLCRKCANDIFQAANPYWTSRGSSVSMSGGRFRCPTCRHEVIMDRHGVYGLQRNLLVENIIDIYKQECSSRPLQKGSHPMCKEHEDEKINIYCLTCEVPTCSMCKVFGIHKACEVAPLQSVFQGQKTELNNCISMLVAGNDRVQTIITQLEDSRRVTKENSHQVKEELSQKFDTLYAILDEKKSELLQRITQEQEKKLSFIEALIQQYQEQLDKSTKLVETAIQSLDEPGGATFLLTAKQLIKSIVEASKGCQLGKTEQGFENMDFFTLDLEHIADALRAIDFGTDEEEEEFIEEEDQEEEESTEGKEEGHQ
B5: GST-Nedd4 (protein)
chain: MATCAVEVFGLLEDEENSRIVRVRVIAGIGLAKKDILGASDPYVRVTLYDPMNGVLTSVQTKTIKKSLNPKWNEEILFRVHPQQHRLLFEVFDENRLTRDDFLGQVDVPLYPLPTENPRLERPYTFKDFVLHPRSHKSRVKGYLRLKMTYLPKTSGSEDDNAEQAEELEPGWVVLDQPDAACHLQQQQEPSPLPPGWEERQDILGRTYYVNHESRRTQWKRPTPQDNLTDAENGNIQLQAQRAFTTRRQISEETESVDNRESSENWEIIREDEATMYSNQAFPSPPPSSNLDVPTHLAEELNARLTIFGNSAVSQPASSSNHSSRRGSLQAYTFEEQPTLPVLLPTSSGLPPGWEEKQDERGRSYYVDHNSRTTTWTKPTVQATVETSQLTSSQSSAGPQSQASTSDSGQQVTQPSEIEQGFLPKGWEVRHAPNGRPFFIDHNTKTTTWEDPRLKIPAHLRGKTSLDTSNDLGPLPPGWEERTHTDGRIFYINHNIKRTQWEDPRLENVAITGPAVPYSRDYKRKYEFFRRKLKKQNDIPNKFEMKLRRATVLEDSYRRIMGVKRADFLKARLWIEFDGEKGLDYGGVAREWFFLISKEMFNPYYGLFEYSATDNYTLQINPNSGLCNEDHLSYFKFIGRVAGMAVYHGKLLDGFFIRPFYKMMLHKPITLHDMESVDSEYYNSLRWILENDPTELDLRFIIDEELFGQTHQHELKNGGSEIVVTNKNKKEYIYLVIQWRFVNRIQKQMAAFKEGFFELIPQDLIKIFDENELELLMCGLGDVDVNDWREHTKYKNGYSANHQVIQWFWKAVLMMDSEKRIRLLQFVTGTSRVPMNGFAELYGSNGPQSFTVEQWGTPEKLPRAHTCFNRLDLPPYESFEELWDKLQMAIENTQGFDGVD

The series concerns the target T1, S5a, P55036.
T1 chain: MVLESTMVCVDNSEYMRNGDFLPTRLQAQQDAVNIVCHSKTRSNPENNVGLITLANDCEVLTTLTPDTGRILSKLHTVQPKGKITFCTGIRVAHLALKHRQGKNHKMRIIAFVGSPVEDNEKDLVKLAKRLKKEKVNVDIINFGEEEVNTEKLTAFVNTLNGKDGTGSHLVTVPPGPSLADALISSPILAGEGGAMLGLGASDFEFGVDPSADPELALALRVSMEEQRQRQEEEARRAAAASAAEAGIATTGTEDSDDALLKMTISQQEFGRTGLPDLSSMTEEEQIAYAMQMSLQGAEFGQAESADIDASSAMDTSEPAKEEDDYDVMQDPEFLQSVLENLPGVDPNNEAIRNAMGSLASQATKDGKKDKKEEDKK
Turning to B1, the “Ubiquitinated S5a? (in vitro ubiquitination assay, Western blot with anti-S5a)” value was “Yes”. In the case of B2 it was “Yes (low)”; in that of B3, “Yes”; in that of B4, “Yes”.

For the protein B5, the “Ubiquitinated S5a? (in vitro ubiquitination assay, Western blot with anti-S5a)” value was “Yes”.
